Measurements from patent US20020055467A1 (Biogen, published 2002).

Target: T1, fusion protein between the extracellular domain of rat RET and placental alkaline phosphatase (rat, UniProt G3V9H8 24-637)
T1 construct: extracellular domain; Used as conditioned medium from 293 EBNA cells; Construct described in Sanicola et al. 1997; also called RET-AP
Assay: ternary complex assay without ligand (parental CHO medium or straight medium)
Protocol: Dynex Microlite-1 ELISA plates (Dynex Technologies) were coated with 1 μg/ml goat antibody specific for human Fc in 50 mM bicarbonate/carbonate, pH 9.6 for 16 hr. The plates were emptied and filled with 300 μl of 1% I-block (Tropix) in TBS/0.5% Tween-20 (TBST), for 1 hr. After washing three times with TBST the wells were filled with 100 μl of 1 μg/ml rGFRα1-Ig or mGFRα3-Ig diluted in conditioned media from 293 EBNA cells expressing the RET-AP fusion gene. 100 ul of conditioned media from the CHO neublastin clones was then added to the top well of a column of wells, and 2 fold serial dilutions were performed down each row of wells, and incubated for 1.5 hr at room temperature. The plates were then washed three times with TBST, and twice with 200 mM Tris pH9.8, 10 mM MgCl₂ (CSPD buffer). The wash solution was then replaced with 425 μM CSPD (Tropix) in CSPD buffer containing 1 mg/ml Sapphire chemiluminescence enhancer (Tropix), and incubated for 30′ at room temperature. The chemiluminescent output was measured using a Dynatech luminometer.
The initial experiments investigated whether neublastin produced by the CHO cell lines could mediate the binding of GFRα1 or GFRα3 to the extracellular domain of RET.

T1 sequence (G3V9H8 24-637): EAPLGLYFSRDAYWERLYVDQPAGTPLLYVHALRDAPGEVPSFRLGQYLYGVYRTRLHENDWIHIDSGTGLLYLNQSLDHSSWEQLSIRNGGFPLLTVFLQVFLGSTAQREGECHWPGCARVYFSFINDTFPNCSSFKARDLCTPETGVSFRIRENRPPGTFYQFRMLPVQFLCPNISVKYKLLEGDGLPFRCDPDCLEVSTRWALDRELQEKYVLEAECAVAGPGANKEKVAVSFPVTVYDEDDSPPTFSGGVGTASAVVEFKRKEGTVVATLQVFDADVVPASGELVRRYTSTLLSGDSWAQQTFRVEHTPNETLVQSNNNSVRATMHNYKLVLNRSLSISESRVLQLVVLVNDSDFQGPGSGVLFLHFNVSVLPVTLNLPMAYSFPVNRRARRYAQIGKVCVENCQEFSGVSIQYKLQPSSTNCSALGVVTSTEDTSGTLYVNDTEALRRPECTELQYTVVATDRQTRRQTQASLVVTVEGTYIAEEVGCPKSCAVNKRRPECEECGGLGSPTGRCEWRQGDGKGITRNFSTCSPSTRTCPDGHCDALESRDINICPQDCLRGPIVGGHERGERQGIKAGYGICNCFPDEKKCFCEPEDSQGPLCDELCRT

binding result: no binding
B1: fusion protein between the extracellular domain of rat GFRα1 and the Fc domain of human IgG1 (Fc fusion, UniProt Q62997 25-430, looked up, not shown: a dimerising Fc or GST)
chain: DRLDCVKASDQCLKEQSCSTKYRTLRQCVAGKETNFSLTSGLEAKDECRSAMEALKQKSLYNCRCKRGMKKEKNCLRIYWSMYQSLQGNDLLEDSPYEPVNSRLSDIFRAVPFISDVFQQVEHISKGNNCLDAAKACNLDDTCKKYRSAYITPCTTSMSNEVCNRRKCHKALRQFFDKVPAKHSYGMLFCSCRDIACTERRRQTIVPVCSYEERERPNCLSLQDSCKTNYICRSRLADFFTNCQPESRSVSNCLKENYADCLLAYSGLIGTVMTPNYVDSSSLSVAPWCDCSNSGNDLEDCLKFLNFFKDNTCLKNAIQAFGNGSDVTMWQPAPPVQTTTATTTTAFRVKNKPLGPAGSENEIPTHVLPPCANLQAQKLKSNVSGSTHLCLSDSDFGKDGLAGASS
notes: extracellular domain; Construct described in Sanicola et al. 1997; also called rGFRα1-Ig
